Stoichiometry N (Sec24C(228–242) molecules per CA hexamer) and stoichiometry N data for two substances are collected here from article PMC8012256.

This test deals with cross-linked CA A14C/E45C/W184A/M185A hexamer (HIV-1). The test is described as follows: crystal structure.

In turn, “Sec24C(228–242) peptide (from UniProt P53992-1 228-242)” showed a stoichiometry N (Sec24C(228–242) molecules per CA hexamer) of 6.

A word on the stoichiometry N: it is a count of units in the complex or per binding partner. Substance “cross-linked CA A14C/E45C/W184A/M185A hexamer (complex)” registered a stoichiometry N of 6.
